Experimental data as given in publication doi:10.1101/194993.

Legend:
[1] = molecular target: native tubulin purified from porcine brain, polymerised to microtubules (MTs) (porcine); experiment: co-sedimentation
[2] = molecular target: native tubulin purified from porcine brain, polymerised to microtubules (MTs) (porcine); experiment: co-sedimentation; remark: listed apart in the source
[3] = molecular target: native tubulin purified from porcine brain, polymerised to microtubules (MTs) (porcine); experiment: total internal reflection fluorescence microscopy
[4] = molecular target: native tubulin purified from porcine brain, polymerised to microtubules (MTs) (porcine); experiment: co-sedimentation; remark: listed apart in the source

B1: Cdt1^410-546 (N-terminal GFP fusion) (domain or fragment)
chain: ASPSALKGVSQDLLERIRAKEAQKQLAQMTRCPEQEQRLQRLERLPELARVLRSVFVSERKPALSMEVACARMVGSCCTIMSPGEMEKHLLLLSELLPDWLSLHRIRTDTYVKLDKAADLAHITARLAHQTRAEEGL
[1]
  reduction of MT binding against Cdt1^92-546: 50%

B2: Cdt1^92-546 (human Cdt1 devoid of the N-terminal 92 aa, N-terminal GFP fusion) (domain or fragment)
chain: PSPGQKIKKSTPAAGQPPHLTSAQDQDTISELASCLQRARELGARVRALKASAQDAGESCTPEAEGRPEEPCGEKAPAYQRFHALAQPGLPGLVLPYKYQVLAEMFRSMDTIVGMLHNRSETPTFAKVQRGVQDMMRRRFEECNVGQIKTVYPASYRFRQERSVPTFKDGTRRSDYQLTIEPLLEQEADGAAPQLTASRLLQRRQIFSQKLVEHVKEHHKAFLASLSPAMVVPEDQLTRWHPRFNVDEVPDIEPAALPQPPATEKLTTAQEVLARARNLISPRMEKALSQLALRSAAPSSPGSPRPALPATPPATPPAASPSALKGVSQDLLERIRAKEAQKQLAQMTRCPEQEQRLQRLERLPELARVLRSVFVSERKPALSMEVACARMVGSCCTIMSPGEMEKHLLLLSELLPDWLSLHRIRTDTYVKLDKAADLAHITARLAHQTRAEEGL
[1]
  Kd: 2200 nM
  binding left in the presence of 250 mM NaCl: 50%
[2]
  Kd: 2030 nM
[3]
  Kd: 460 nM
  dwell time: 2.37 s
  kon: 1070 M⁻¹ s⁻¹
[4]
  Kd: 1850 nM

B3: Cdt1^92-546 8D (Aurora B phosphomimetic mutant) (domain or fragment)
chain: PSPGQKIKKDDPAAGQPPHLTSAQDQDTISELASCLQRARELGARVRALKADAQDAGESCTPEAEGRPEEPCGEKAPAYQRFHALAQPGLPGLVLPYKYQVLAEMFRSMDTIVGMLHNRSETPTFAKVQRGVQDMMRRRFEECNVGQIKTVYPASYRFRQERSVPTFKDGTRRDDYQLDIEPLLEQEADGAAPQLDASRLLQRRQIFSQKLVEHVKEHHKAFLASLSPAMVVPEDQLDRWHPRFNVDEVPDIEPAALPQPPATEKLDTAQEVLARARNLISPRMEKALSQLALRSAAPSSPGSPRPALPATPPATPPAASPSALKGVSQDLLERIRAKEAQKQLAQMTRCPEQEQRLQRLERLPELARVLRSVFVSERKPALSMEVACARMVGSCCTIMSPGEMEKHLLLLSELLPDWLSLHRIRTDTYVKLDKAADLAHITARLAHQTRAEEGL
[2]
  Kd: 5500 nM

B4: full-length (FL) Cdt1^1-546, untagged (natural protein)
chain: MEQRRVTDFFARRRPGPPRIAPPKLACRTPSPARPALRAPASATSGSRKRARPPAAPGRDQARPPARRRLRLSVDEVSSPSTPEAPDIPACPSPGQKIKKSTPAAGQPPHLTSAQDQDTISELASCLQRARELGARVRALKASAQDAGESCTPEAEGRPEEPCGEKAPAYQRFHALAQPGLPGLVLPYKYQVLAEMFRSMDTIVGMLHNRSETPTFAKVQRGVQDMMRRRFEECNVGQIKTVYPASYRFRQERSVPTFKDGTRRSDYQLTIEPLLEQEADGAAPQLTASRLLQRRQIFSQKLVEHVKEHHKAFLASLSPAMVVPEDQLTRWHPRFNVDEVPDIEPAALPQPPATEKLTTAQEVLARARNLISPRMEKALSQLALRSAAPSSPGSPRPALPATPPATPPAASPSALKGVSQDLLERIRAKEAQKQLAQMTRCPEQEQRLQRLERLPELARVLRSVFVSERKPALSMEVACARMVGSCCTIMSPGEMEKHLLLLSELLPDWLSLHRIRTDTYVKLDKAADLAHITARLAHQTRAEEGL
[1]
  Kd: 2290 nM
